A short description of the data set: self-splicing fitness, log relative to wild type (ln ratio); higher = more splicing; Tetrahymena group I intron in knt gene, E. coli kanamycin selection, DiMSum; sequences stand for … in CUCUCU…GGAGGGAAAAGUUAUCAGGCAUGCACCUGGUAGCUAGUCUUUAAACCAAUAGAUUGCAUCGGUUUAAAAGGCAAGACCGUCAAAUUGCGGGAAAGGGGUCAACAGCCGUUCAGUACCAAGUCUCAGGGGAAACUUUGAGAUGGCCUUGCAAAGGGUAUGGUAAUAAGCUGACGGACAUGGUCCUAACCACGCAGCCAAGUCCUAAGUCAACAGAUCUUCUGUUGAUAUGGAUGCAGUUCACAGACUAAAUGUCGGUCGGGGAAGAUGUAUUCUUCUCAUAAGAUAUAGUCGGACCUCUCCUUAAUGGGAGCUAGCGGAUGAAGUGAUGCAACACUGGAGCCGCUGGGAACUAAUUUGUAUGCGAAAGUAUAUUGAUUAGUUUUGGAGUACUCGUGGUCG
The essentials:
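Six replicate transformations of E. coli BL21(DE3) with a pET-22b(+) library were grown overnight at 37°C or 30°C. The library randomised all eight P1ex-region intron nucleotides, the intron lying in the knt kanamycin-resistance gene, and plates were LB agar with or without 25 μg/mL kanamycin plus 100 μg/mL carbenicillin, 50 μM IPTG and 0.2% rhamnose. Pooled colonies were amplicon-sequenced on an Illumina HiSeq 2500, and fitness is the DiMSum error-weighted combination of wild-type-normalised replicate fold changes, kanamycin versus none.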

± gives the uncertainty stated by the source.

With ACGUAGCAAUAUUACGUCUG, the “self-splicing fitness (ln)” value runs as follows: (30 °C) -2.47 ± 0.16; (37 °C) -2.71 ± 0.19.
On the same counts, the results for GAUAAGCAAUAUUACGCCAU are -2.79 ± 0.21 and -1.72 ± 0.17.
With GGACAGCAAUAUUACGGCAC, the “self-splicing fitness (ln)” value reads like this: (30 °C) -0.469 ± 0.12; (37 °C) -0.25 ± 0.15.
For UCACAGCAAUAUUACGCACA, the “self-splicing fitness (ln)” value is -0.445 ± 0.088 (30 °C) and -0.743 ± 0.12 (37 °C).
Consider UGGAAGCAAUAUUACGCGCC, for which the “self-splicing fitness (ln)” value by setting is: (30 °C) -3.22 ± 0.32; (37 °C) -1.54 ± 0.31.
As to GCCAAGCAAUAUUACGCAGA, the “self-splicing fitness (ln)” value is, setting by setting: (30 °C) -3.13 ± 0.16; (37 °C) -2.22 ± 0.15.
Turning to AUCUAGCAAUAUUACGUUCA, the “self-splicing fitness (ln)” value was -1.33 ± 0.099 (30 °C) and -0.242 ± 0.085 (37 °C).
On to GACGAGCAAUAUUACGGUCG, for which the “self-splicing fitness (ln)” value was -2.31 ± 0.097 (30 °C) and -0.868 ± 0.12 (37 °C).
Take AGCAAGCAAUAUUACGGCCG: the “self-splicing fitness (ln)” value is -0.219 ± 0.071 (30 °C) and -0.111 ± 0.094 (37 °C).
Consider GCUAAGCAAUAUUACGUCUG, for which the “self-splicing fitness (ln)” value was -1.84 ± 0.085 (30 °C) and -0.987 ± 0.096 (37 °C).
In the case of ACCAAGCAAUAUUACGGCCA, the “self-splicing fitness (ln)” value is, setting by setting: (30 °C) -0.654 ± 0.099; (37 °C) 0.134 ± 0.12.
On the same counts, the results for UUUUAGCAAUAUUACGCGAU are -3.02 ± 0.34 and -1.97 ± 0.27.
Turning to GCUGAGCAAUAUUACGCGAU, the “self-splicing fitness (ln)” value is, setting by setting: (30 °C) -2.78 ± 0.17; (37 °C) -2.59 ± 0.25.
On the same counts, the results for CUUAAGCAAUAUUACGGCGA are -4.04 ± 0.46 and -1.81 ± 0.34.
Turning to AUGAAGCAAUAUUACGUGCG, the “self-splicing fitness (ln)” value by setting is: (30 °C) -0.65 ± 0.08; (37 °C) 0.532 ± 0.11.
For the sequence GGAUAGCAAUAUUACGGUGA, the “self-splicing fitness (ln)” value runs as follows: (30 °C) -2.43 ± 0.1; (37 °C) -1.14 ± 0.091.
On the same counts, the results for CGCCAGCAAUAUUACGAAAC are -4.57 ± 0.36 and -1.78 ± 0.2.
For the sequence CACCAGCAAUAUUACGCCGC, the “self-splicing fitness (ln)” value runs as follows: (30 °C) -3.35 ± 0.2; (37 °C) -2.43 ± 0.29.
Regarding AACUAGCAAUAUUACGGCGC, the “self-splicing fitness (ln)” value (30 °C) was -0.8 ± 0.13 and the “self-splicing fitness (ln)” value (37 °C) was -0.34 ± 0.16.
As to CGGUAGCAAUAUUACGUGUG, the “self-splicing fitness (ln)” value by setting is: (30 °C) -0.17 ± 0.062; (37 °C) 0.0947 ± 0.09.
On the same counts, the results for UCCUAGCAAUAUUACGGCUU are -3.41 ± 0.15 and -2.47 ± 0.2.
UAUGAGCAAUAUUACGACAG: the “self-splicing fitness (ln)” value (37 °C) is -1.78 ± 0.36.
In the case of CCAGAGCAAUAUUACGCUUA, for the setting “30 °C”, the “self-splicing fitness (ln)” value is -3.34 ± 0.43.
Turning to AAAAAGCAAUAUUACGAAUG, the “self-splicing fitness (ln)” value reads like this: (30 °C) -1.48 ± 0.091; (37 °C) -0.947 ± 0.12.
On to CCACAGCAAUAUUACGAAUA, for which the “self-splicing fitness (ln)” value was -2.57 ± 0.15 (30 °C) and -2.59 ± 0.19 (37 °C).
For GCCCAGCAAUAUUACGUGGA, the “self-splicing fitness (ln)” value by setting is: (30 °C) -0.734 ± 0.063; (37 °C) 0.199 ± 0.076.
For AUUAAGCAAUAUUACGUAGA, the “self-splicing fitness (ln)” value (30 °C) was -2.39 ± 0.15 and the “self-splicing fitness (ln)” value (37 °C) was -0.947 ± 0.15.
Turning to AGUAAGCAAUAUUACGUGGU, the “self-splicing fitness (ln)” value (30 °C) was -4.77 ± 0.29 and the “self-splicing fitness (ln)” value (37 °C) is -2.59 ± 0.17.
UUUCAGCAAUAUUACGGUAC: the “self-splicing fitness (ln)” value is, setting by setting: (30 °C) -1.9 ± 0.41; (37 °C) -2.1 ± 0.26.
As to UUUAAGCAAUAUUACGUCUG, the “self-splicing fitness (ln)” value (30 °C) is -0.513 ± 0.1 and the “self-splicing fitness (ln)” value (37 °C) is -0.114 ± 0.12.
On the same counts, the results for GCGAAGCAAUAUUACGAACA are -1.49 ± 0.34 and -1.16 ± 0.29.
In the case of UUGCAGCAAUAUUACGGUUG, the “self-splicing fitness (ln)” value (30 °C) is -3.07 ± 0.15 and the “self-splicing fitness (ln)” value (37 °C) was -2.04 ± 0.15.
On the same counts, the results for CUCUAGCAAUAUUACGUAAA are -3.71 ± 0.35 and -0.971 ± 0.17.
On to UGUCAGCAAUAUUACGUUCG, for which the “self-splicing fitness (ln)” value by setting is: (30 °C) 0.194 ± 0.073; (37 °C) 0.709 ± 0.1.
On the same counts, the results for AAGUAGCAAUAUUACGCCGA are -1.53 ± 0.16 and -1.39 ± 0.17.
On the same counts, the results for UAACAGCAAUAUUACGAAUU are -3.02 ± 0.13 and -1.86 ± 0.18.
As for GUAGAGCAAUAUUACGCAGG, the “self-splicing fitness (ln)” value was -1.51 ± 0.15 (30 °C) and -1.59 ± 0.15 (37 °C).
On the same counts, the results for AGACAGCAAUAUUACGGUGA are -1.49 ± 0.074 and -0.921 ± 0.095.

These data come from the supplement of paper PMC7877785.
